Assay [1] concerns the target gp140. Kind of assay: ELISA on gp140, OD405. On the technique in general: ELISA stands for enzyme-linked immunosorbent assay.
Assay [2] addresses gp140. Kind of assay: ELISA (FIG. 10).
A further assay has as its target nucleolin (UniProt P19338). As to the kind of experiment: ELISA (FIG. 11).

B1: gg37 (designed binder)
chain: APELLGGPSVFLFPPTPKDTLMISRTPEVTCVVVDVSHEDPEVKFNWYVDGVEVHNAKTKPREEQYNSTYGVSSGLTVLHQDWLNGKEYKCKVSNKALPAPIEKTISKAKGQPREPQVYTSPPSRDELTKNQVSLRCHVKGFYPSDIAVEWESNGQGARGGMNWFDPWVPVLDSDGSFFLYGKLTVDKSRWQQGNVFSCSVMHEALHNHYTQKSLSLSPGK
One may read the EC50 (read off the curve) as the concentration that produces a half-maximal response. A higher EC50 (read off the curve) goes with weaker potency. B1 displayed a concentration giving a half-maximal response (EC50 (read off the curve)) in the assay with gp140 [1] of 80 nM. The same molecule registered an affinity in the assay with gp140 [2] of 50 nM.

B2: gn1 (designed binder)
chain: APELLGGPSVFLFPPSPKDTLMISRTPEVTCVVVDVSHEDPEVKFNWYVDGVEVHNAKTKPREEQYNSTYSVASLLTVLHQDWLNGKEYKCKVSNKALPAPIEKTISKAKGQPREPQVYTSPPSRDELTKNQVSLRCHVKGFYPSDIAVEWESNGQGAKGSSGSTWGYGMDVWVPVLDSDSSFFLYSKLTVDKSRWQQGNVFSCSVMHEALHNHYTQKSLSLSPGK
For the molecule B2, the affinity in the assay with nucleolin worked out at 50 nM.

The record behind these values is patent US20150050278A1.
